Reference: KR20130140557A (dated 2013)

Experiments:
[1] = target: T1, IL-6R-Fc 항원 (IL-6R full domain 단백질) (human, UniProt P08887 20-365); assay: mono phage ELISA, ratio of OD on IL-6R full to OD on a-myc
T1 construct: domain: IL-6R full domain; Expressed transiently in HEK293E and purified from the supernatant; also called IL-6R 항원; not shown: Fc part from expression vector pYK 604
T1 sequence (looked up): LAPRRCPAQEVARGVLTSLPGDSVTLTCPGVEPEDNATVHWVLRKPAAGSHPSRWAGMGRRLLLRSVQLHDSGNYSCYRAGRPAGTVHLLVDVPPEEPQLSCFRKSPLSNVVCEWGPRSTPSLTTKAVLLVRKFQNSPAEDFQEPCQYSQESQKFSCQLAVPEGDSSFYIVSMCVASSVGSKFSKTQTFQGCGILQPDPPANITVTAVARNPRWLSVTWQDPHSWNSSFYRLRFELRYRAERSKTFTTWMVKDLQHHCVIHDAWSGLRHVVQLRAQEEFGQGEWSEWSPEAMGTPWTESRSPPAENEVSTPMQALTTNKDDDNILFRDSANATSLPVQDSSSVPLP

Fc = assay: mono phage ELISA, Fc coated 100 ng/well, anti-M13-HRP
[2] = target: T1, IL-6R-Fc 항원 (IL-6R full domain 단백질); assay: mono phage ELISA, antigen coated 100 ng/well, anti-M13-HRP
a-Myc = assay: mono phage ELISA, a-Myc coated 100 ng/well, anti-M13-HRP
[3] = target: T1, IL-6R-Fc 항원 (IL-6R full domain 단백질); assay: ELISA (summary table; same value as the 3rd table)
[4] = target: T1, IL-6R-Fc 항원 (IL-6R full domain 단백질); assay: ELISA titration on coated IL-6R, anti-Fab-HRP
[5] = target: T1, IL-6R-Fc 항원 (IL-6R full domain 단백질); assay: ELISA, coated IL-6R 100 ng/well, anti-Fab-HRP

B1: 모노 파아지 클론 B10 (scFv on phage) (scFv)
chain: DVHSQVQLVESGGGLVQPGGSLRLSCAASGFIFDDYAMFWVRQVPGKGLEWVAGINWNGNGIGYGDSVRGRFIISRDNARNSLDLQMNSLRAEDTAVYYCARPSLYGGNSEFDLWGQGTLVTVSSDVHSQLVLTQPPSVSGAPGQTVTISCTGPTIGAGYDVHWYQQLPGAAPKLLIYGNLNRPSGVPDRFSGSKSGTSASLAITDLQAEDEADYYCHTYDSSLSGSWVFGGGTKLTVL
B1 was tested, and the “Ratio (IL-6R full / a-myc)” value [1] was 18.6, the OD 490 nm (Fc) (Fc) was 0.0406 OD490 and the “OD 490 nm (IL-6R full)” value [2] was 2.1 OD490. It also gave an OD 490 nm (a-myc) (a-Myc) of 0.113 OD490.

B2: 모노 파아지 클론 F2 (scFv on phage) (scFv)
chain: DVHSQVQLVESGAEVKKPGASVKVSCKASGYTFTNYYMHWVRQAPGQGLEWMGIINPSGGNTGYAQKFQGRVTMTRDMSTSTAYMELSSLRSEDTAVYYCARGLPWGENGLDVWGQGTTVTVSSDVHSQLVLTQPSSVSGAPGQTVTISCTGSSSNIGAGYDVHWYQQLPGTAPKVLIYGDSDRPSGVPDRFSGSKSATSASLAITGLQAEDEADYYCQSYDSSLSAYVFGTGTKVTVL
B2 was tested, and the “Ratio (IL-6R full / a-myc)” value [1] was 9.96, the OD 490 nm (Fc) (Fc) was 0.0405 OD490 and the “OD 490 nm (IL-6R full)” value [2] was 2.86 OD490. It also gave an OD 490 nm (a-myc) (a-Myc) of 0.287 OD490.

B3: 모노 파아지 클론 D2 (scFv on phage) (scFv)
chain: DVHSQVQLVESGAEVKKPGSSVKVSCKGSGDTFPNYAINWVRQAPGQGPEWMGRIIPMLGTSDYAEKFQGRVTITADKSTNTAYMGLNSLRSEDTAVYYCVKGPRYYGTDSYYLEKWGQGTMVTVSSDVHSQLVLTQPPSVSGAPGQTVTISCTGPTIGAGYDVHWYQQLPGAAPKLLIYGNLNRPSGVPDRFSGSKSGTSASLAITDLQAEDEADYYCHTYDSSLSGSWVFGGGTKLTVL
In the case of B3, the “Ratio (IL-6R full / a-myc)” value [1] is reported as 7.71, the OD 490 nm (Fc) (Fc) is reported as 0.0415 OD490 and the “OD 490 nm (IL-6R full)” value [2] is reported as 2.34 OD490. It also gave an OD 490 nm (a-myc) (a-Myc) of 0.303 OD490.

B4: 항 IL-6R 단클론 항체 A7 (IgG) (antibody, V domains shown)
VH: QMQLVESGGGLVQPGTSLRLSCAASGFKFEDYAMHWVRQAPGKGLEWVSGVSWNSGTIAYVDSVKGRFTISRDNAKNSLYLQMNSLRAEDTAVYYCARDFTYFYESSGYYAFDLWGQGTMVTVSS
VL: SQLVLTQPPSVSGAPGQRVTISCTGTNSNIGAGYDVHWYQQVPGTTPKLLIYGNTNRPSGVPDRFSGSKSGTSASLAITGLQAEDGGDYYCQSFDSSLTGSVFGTGTKVTVL
notes: Phage clone converted to whole IgG
B4 was tested, and the Kd [3] was 2.3 nM, the Kd [4] was 2.3 nM and the “OD 490 nm at 0.02441 nM antibody” value [5] was 0.514 OD490. The “OD 490 nm at 0.04883 nM antibody” value [5] was 0.498 OD490, the “OD 490 nm at 0.09766 nM antibody” value [5] was 0.497 OD490 and the “OD 490 nm at 0.19531 nM antibody” value [5] was 0.546 OD490. For the same binder, the “OD 490 nm at 0.39063 nM antibody” value [5] was 0.618 OD490, the “OD 490 nm at 0.78125 nM antibody” value [5] was 0.782 OD490 and the “OD 490 nm at 1.5625 nM antibody” value [5] was 1.17 OD490. For the same binder, the “OD 490 nm at 3.125 nM antibody” value [5] was 1.64 OD490, the “OD 490 nm at 6.25 nM antibody” value [5] was 2.13 OD490 and the “OD 490 nm at 12.5 nM antibody” value [5] was 2.58 OD490. The “OD 490 nm at 25 nM antibody” value [5] was 2.84 OD490 and the “OD 490 nm at 50 nM antibody” value [5] was 3.1 OD490.

B5: 항 IL-6R 단클론 항체 B10 (IgG) (antibody, V domains shown)
VH: QVQLVESGGGLVQPGGSLRLSCAASGFIFDDYAMFWVRQVPGKGLEWVAGINWNGNGIGYGDSVRGRFIISRDNARNSLDLQMNSLRAEDTAVYYCARPSLYGGNSEFDLWGQGTLVTVSS
VL: SQLVLTQPPSVSGAPGQTVTISCTGPTIGAGYDVHWYQQLPGAAPKLLIYGNLNRPSGVPDRFSGSKSGTSASLAITDLQAEDEADYYCHTYDSSLSGSWVFGGGTKLTVL
notes: as for B4
In the case of B5, the Kd [3] is reported as 4.3 nM, the Kd [4] is reported as 4.3 nM and the “OD 490 nm at 0.02441 nM antibody” value [5] is reported as 0.468 OD490. For the same binder, the “OD 490 nm at 0.04883 nM antibody” value [5] was 0.451 OD490, the “OD 490 nm at 0.09766 nM antibody” value [5] was 0.462 OD490 and the “OD 490 nm at 0.19531 nM antibody” value [5] was 0.429 OD490. The “OD 490 nm at 0.39063 nM antibody” value [5] was 0.476 OD490, the “OD 490 nm at 0.78125 nM antibody” value [5] was 0.5 OD490 and the “OD 490 nm at 1.5625 nM antibody” value [5] was 0.607 OD490. The “OD 490 nm at 3.125 nM antibody” value [5] was 0.761 OD490, the “OD 490 nm at 6.25 nM antibody” value [5] was 1.04 OD490 and the “OD 490 nm at 12.5 nM antibody” value [5] was 1.39 OD490. The “OD 490 nm at 25 nM antibody” value [5] was 1.78 OD490 and the “OD 490 nm at 50 nM antibody” value [5] was 2.09 OD490.

B6: 항 IL-6R 단클론 항체 D2 (IgG) (antibody, V domains shown)
VH: QVQLVESGAEVKKPGSSVKVSCKGSGDTFPNYAINWVRQAPGQGPEWMGRIIPMLGTSDYAEKFQGRVTITADKSTNTAYMGLNSLRSEDTAVYYCVKGPRYYGTDSYYLEKWGQGTMVTVSS
VL: SQLVLTQPPSVSGAPGQTVTISCTGPTIGAGYDVHWYQQLPGAAPKLLIYGNLNRPSGVPDRFSGSKSGTSASLAITDLQAEDEADYYCHTYDSSLSGSWVFGGGTKLTVL
notes: as for B4
For B6, the Kd [3] was 7.5 nM, the Kd [4] was 7.5 nM and the “OD 490 nm at 0.02441 nM antibody” value [5] was 0.449 OD490. For the same binder, the “OD 490 nm at 0.04883 nM antibody” value [5] was 0.451 OD490, the “OD 490 nm at 0.09766 nM antibody” value [5] was 0.45 OD490 and the “OD 490 nm at 0.19531 nM antibody” value [5] was 0.469 OD490. The “OD 490 nm at 0.39063 nM antibody” value [5] was 0.473 OD490, the “OD 490 nm at 0.78125 nM antibody” value [5] was 0.479 OD490 and the “OD 490 nm at 1.5625 nM antibody” value [5] was 0.584 OD490. The “OD 490 nm at 3.125 nM antibody” value [5] was 0.719 OD490, the “OD 490 nm at 6.25 nM antibody” value [5] was 0.981 OD490 and the “OD 490 nm at 12.5 nM antibody” value [5] was 1.47 OD490. The “OD 490 nm at 25 nM antibody” value [5] was 1.94 OD490 and the “OD 490 nm at 50 nM antibody” value [5] was 2.38 OD490.

B7: 항 IL-6R 단클론 항체 F2 (IgG) (antibody, V domains shown)
VH: QVQLVESGAEVKKPGASVKVSCKASGYTFTNYYMHWVRQAPGQGLEWMGIINPSGGNTGYAQKFQGRVTMTRDMSTSTAYMELSSLRSEDTAVYYCARGLPWGENGLDVWGQGTTVTVSS
VL: SQLVLTQPSSVSGAPGQTVTISCTGSSSNIGAGYDVHWYQQLPGTAPKVLIYGDSDRPSGVPDRFSGSKSATSASLAITGLQAEDEADYYCQSYDSSLSAYVFGTGTKVTVL
notes: as for B4
With B7 the Kd [3] was 0.35 nM, the Kd [4] was 0.35 nM and the “OD 490 nm at 0.02441 nM antibody” value [5] was 0.535 OD490. For the same binder, the “OD 490 nm at 0.04883 nM antibody” value [5] was 0.584 OD490, the “OD 490 nm at 0.09766 nM antibody” value [5] was 0.743 OD490 and the “OD 490 nm at 0.19531 nM antibody” value [5] was 1.01 OD490. The “OD 490 nm at 0.39063 nM antibody” value [5] was 1.41 OD490, the “OD 490 nm at 0.78125 nM antibody” value [5] was 1.9 OD490 and the “OD 490 nm at 1.5625 nM antibody” value [5] was 2.43 OD490. For the same binder, the “OD 490 nm at 3.125 nM antibody” value [5] was 2.72 OD490, the “OD 490 nm at 6.25 nM antibody” value [5] was 2.71 OD490 and the “OD 490 nm at 12.5 nM antibody” value [5] was 2.92 OD490. The “OD 490 nm at 25 nM antibody” value [5] was 2.89 OD490 and the “OD 490 nm at 50 nM antibody” value [5] was 2.99 OD490.

B8: 모노 파아지 클론 A7 (scFv on phage) (scFv)
chain: DVHSQMQLVESGGGLVQPGTSLRLSCAASGFKFEDYAMHWVRQAPGKGLEWVSGVSWNSGTIAYVDSVKGRFTISRDNAKNSLYLQMNSLRAEDTAVYYCARDFTYFYESSGYYAFDLWGQGTMVTVSSDVHSQLVLTQPPSVSGAPGQRVTISCTGTNSNIGAGYDVHWYQQVPGTTPKLLIYGNTNRPSGVPDRFSGSKSGTSASLAITGLQAEDGGDYYCQSFDSSLTGSVFGTGTKVTVL
B8 was tested, and the “Ratio (IL-6R full / a-myc)” value [1] was 31.1, the OD 490 nm (Fc) (Fc) was 0.0421 OD490 and the “OD 490 nm (IL-6R full)” value [2] was 2.48 OD490. For the same binder, the OD 490 nm (a-myc) (a-Myc) was 0.0797 OD490.
